Results: patent US20250042992A1 (University of California, published 2025)

T1: recombinant fusion protein of human DLK1 extracellular domain (ECD) and monomeric immunoglobulin Fc domain … (human, UniProt P80370 24-303)
T1 construct: also called human DLK1 ECD-mFc fusion protein; not shown: monomeric immunoglobulin Fc domain (mFc)
T1 sequence: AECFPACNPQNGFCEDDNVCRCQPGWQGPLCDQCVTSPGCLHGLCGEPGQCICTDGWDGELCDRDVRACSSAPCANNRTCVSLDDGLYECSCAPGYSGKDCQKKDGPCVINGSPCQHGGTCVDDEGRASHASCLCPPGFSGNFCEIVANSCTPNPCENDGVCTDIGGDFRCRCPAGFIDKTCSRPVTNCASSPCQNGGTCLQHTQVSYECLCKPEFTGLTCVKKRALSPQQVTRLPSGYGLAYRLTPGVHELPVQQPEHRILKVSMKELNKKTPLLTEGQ

T2: human DLK1 long form (isoform 1, DLK1-FL) fused to mGFP, overexpressed on HEK293T cells (human, UniProt P80370 24-383)
T2 construct: also called HEK293T DLK1 mGFP G06 (long form); DLK-FL; not shown: mGFP fluorescent protein fused to DLK1
T2 sequence: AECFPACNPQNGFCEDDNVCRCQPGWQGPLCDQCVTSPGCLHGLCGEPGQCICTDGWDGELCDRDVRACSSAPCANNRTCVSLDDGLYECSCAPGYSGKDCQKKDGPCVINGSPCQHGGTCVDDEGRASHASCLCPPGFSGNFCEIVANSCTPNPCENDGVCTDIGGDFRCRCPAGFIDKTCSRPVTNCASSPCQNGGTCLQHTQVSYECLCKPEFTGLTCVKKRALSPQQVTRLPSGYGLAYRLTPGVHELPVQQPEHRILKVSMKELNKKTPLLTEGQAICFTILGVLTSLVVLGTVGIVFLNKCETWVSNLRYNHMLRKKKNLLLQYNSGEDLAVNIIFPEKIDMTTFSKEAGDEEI

T3: monkey DLK1 fused to mGFP, overexpressed on HEK293T cells (monkey (crab-eating macaque), UniProt A0A2K5TMQ6 24-383)
T3 construct: whole, on cells; also called crab-eating macaque DLK1; not shown: mGFP fluorescent protein fused to DLK1
T3 sequence: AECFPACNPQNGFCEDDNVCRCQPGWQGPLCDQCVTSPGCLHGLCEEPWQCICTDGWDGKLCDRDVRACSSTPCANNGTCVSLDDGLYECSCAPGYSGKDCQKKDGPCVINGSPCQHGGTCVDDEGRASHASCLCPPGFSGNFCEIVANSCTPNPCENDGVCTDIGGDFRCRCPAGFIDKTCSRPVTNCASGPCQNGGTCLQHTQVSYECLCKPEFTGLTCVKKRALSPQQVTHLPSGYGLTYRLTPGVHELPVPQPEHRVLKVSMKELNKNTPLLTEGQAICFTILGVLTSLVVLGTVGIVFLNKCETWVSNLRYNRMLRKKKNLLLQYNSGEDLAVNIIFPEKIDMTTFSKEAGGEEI

T4: mouse DLK1 fused to mGFP, overexpressed on HEK293T cells (mouse, UniProt Q09163 24-385)
T4 construct: not shown: mGFP fluorescent protein fused to DLK1
T4 sequence: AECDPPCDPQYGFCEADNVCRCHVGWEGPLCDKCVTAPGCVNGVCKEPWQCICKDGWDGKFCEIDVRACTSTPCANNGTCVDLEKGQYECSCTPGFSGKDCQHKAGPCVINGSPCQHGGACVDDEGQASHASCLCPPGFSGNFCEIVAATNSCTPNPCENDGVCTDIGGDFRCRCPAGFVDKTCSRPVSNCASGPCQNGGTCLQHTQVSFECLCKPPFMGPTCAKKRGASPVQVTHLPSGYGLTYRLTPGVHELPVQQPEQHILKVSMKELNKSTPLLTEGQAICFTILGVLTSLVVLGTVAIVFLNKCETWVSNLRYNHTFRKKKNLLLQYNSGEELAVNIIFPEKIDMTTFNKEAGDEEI

T5: rat DLK1 fused to mGFP, overexpressed on HEK293T cells (rat, UniProt O70534 24-383)
T5 construct: whole, on cells; not shown: mGFP fluorescent protein fused to DLK1
T5 sequence (looked up): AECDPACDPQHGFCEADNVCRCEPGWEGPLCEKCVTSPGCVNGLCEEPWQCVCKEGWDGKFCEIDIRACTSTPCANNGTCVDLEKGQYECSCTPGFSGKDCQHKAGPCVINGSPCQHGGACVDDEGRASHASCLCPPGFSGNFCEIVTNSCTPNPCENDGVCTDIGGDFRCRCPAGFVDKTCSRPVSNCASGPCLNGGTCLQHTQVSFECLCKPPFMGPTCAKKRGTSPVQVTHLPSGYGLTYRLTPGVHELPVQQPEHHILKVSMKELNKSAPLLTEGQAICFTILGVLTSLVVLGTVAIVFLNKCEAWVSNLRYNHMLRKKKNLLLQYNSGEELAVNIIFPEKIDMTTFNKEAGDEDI

B1: humanized anti-DLK1 antibody 04-0547-h2 (IgG1) (antibody, V domains shown)
VH: EVQLVESGGGLVQPGGSLRLSCAASGFSISDYYMAWVRQAPGKGLEWVANINYDGTNTYYADSVKGRFTISRDNSKNTLYLQMNSLRAEDTAVYYCVRSYYYYGMEYWGQGTTVTVSS
VL: DIQMTQSPSSLSASVGDRVTITCRASHDVSTAVAWYQQKPGKAPKLLIYSASYRYTGVPSRFSGSGSGTDFTLTISSLQPEDFATYYCQQHYRIPLTFGQGTKLEIK
notes: human kappa (P01834) and human IgG1 (P01857) constant regions
B2: humanized anti-DLK1 antibody 04-0561-F1 (IgG1) (antibody, V domains shown)
VH: QVQLQESGPGLVKPSETLSLTCTVSGFSLSIYSVHWVRQPPGKGLEWIGLIWGGGSTDYNPSLKSRVTISKDTSKNQVSLKLSSVTAADTAVYYCARKEGNYLWFAYWGQGTLVTVSS
VL: DIVMTQSPDSLAVSLGERVTMNCKSSQSLLQSSNQKNYLAWYQQKPGQPPKLLVYFASTRESGVPDRFSGSGSGTDFTLTISSVQAEDVAVYYCQQHYSIPLTFGQGTKLEIKR

How the values were obtained:
[1] = target: T1, recombinant fusion protein of human …; assay: ELISA with human DLK1 ECD-mFc fusion protein
[2] = target: T1, recombinant fusion protein of human …; assay: ELISA on recombinant DLK1 ECD-mFc
[3] = target: T2, human DLK1 long form (isoform 1, …); assay: KinExA on cells, row HEK293 DLK1-mGFP G05 Cells
[4] = target: T3, monkey DLK1 fused to mGFP, …; assay: KinExA on cells, row HEK293T Monkey DLK1mGFP mass
[5] = target: T1, recombinant fusion protein of human …; assay: Octet384 binding kinetics using recombinant protein DLK1 ECD-mFc
[6] = target: T1, recombinant fusion protein of human …; assay: Octet384 binding kinetics using recombinant protein DLK1 ECD-mFc, row Ka (1/Ms)
[7] = target: T1, recombinant fusion protein of human …; assay: Octet384 binding kinetics using recombinant protein DLK1 ECD-mFc, row Kdis (1/s)
[8] = target: T2, human DLK1 long form (isoform 1, …); assay: KinExA on cells, block Cross Reactivity to Three Tox Models - KD by KinExA (nM), row HEK293T Human DLK1mGFP G05
[9] = target: T4, mouse DLK1 fused to mGFP, overexpressed …; assay: flow cytometry, row HEK293T Mouse DLK1mGFP mass
[10] = target: T5, rat DLK1 fused to mGFP, overexpressed …; assay: flow cytometry, row HEK293T Rat DLK1mGFP mass pop

Row | Binder | fold lower binding affinity (ELISA EC50) than 04-0561-f1 and 04-0562-h10 [1] | EC50 [2] | Kd [3] | Kd [4] | Kd [5] | kon [6] | koff [7] | Kd [8] | EC50 [1] | binding result [9] | binding result [10]
1 | B1 | ~20 fold | 10.3 nM | 5.34 nM | 9.89 nM | 0.298 nM | 15500 M⁻¹ s⁻¹ | 0.00462 s⁻¹ | 5.34 nM | – | – | –
2 | B2 | – | 0.684 nM | 1.11 nM | 2.19 nM | 0.0186 nM | 48200 M⁻¹ s⁻¹ | 0.000898 s⁻¹ | 1.11 nM | ~0.5 nM | no binding (tested: 20µg/ml) | no binding (tested: 20µg/ml)
